Laboratory results taken from patent publication US20250340655A1, “EPHA2-TARGETING ANTIBODIES AND THEIR APPLICATIONS IN CANCER TREATMENT” (TAIPEI MEDICAL UNIVERSITY, priority 2022, published 2025).

Tested on: EphA2pep_P1, EphA2pep_P2, EphA2pep_PIP2 synthetic peptides
Assay: Peptide ELISA for epitope definition
Format: binding
Description: We used peptide enzyme-linked immunosorbent assay (ELISA) to identify the designed epitope on EphA2; the BSA-conjugated peptides EphA2pep_P1 (BSA-[…]) and EphA2pep_P2 (BSA-[…]) each represent the two segments of the linear epitope designed on EphA2. EphA2pep_PIP2 (BSA-[…]) represents the two linear epitope sequences connected by a linker. These peptides were synthesized and conjugated with BSA (Kelowna International Scientific). The BSA-conjugated peptides were individually coated on a 96-well microplate at 4° C. overnight. After the wells were blocked with 3% BSA, IgG hSD5 was added and incubated. Next, an HRP-conjugated anti-HA tag antibody (Cell Signaling Technology) was used to detect bound scFv. Finally, the TMB substrate was added for development, and the reaction was stopped by adding 1 N HCl. Absorbance was measured by determining the OD at 450 nm. A dot blot assay was used to detect the binding of IgG hSD5 to the synthesized peptides; […] of individual peptides (1 mg/mL; in triplicate) were dropped on the NC membrane and maintained at RT for complete absorption. Blocking with 3% BSA was performed at RT for 1 h. Then, IgG hSD5 (10 μg/mL) was added, and the reaction was allowed to proceed for 1 h at RT. After the membrane was washed, the HRP-conjugated anti-HA tag antibody was added, and the reaction was allowed to proceed for 1 h at RT. Lastly, DAB was used to initiate the coloration reaction.
To determine whether the antibody hSD5 can recognize two antigen fragments simultaneously, peptide synthesis of the two antigen fragments was performed to test the binding reaction of antibody IgG hSD5. The ELISA was used to test the binding reactivity of the antibody hSD5 to synthetic peptides. The two short peptides located on the designed activation site of EphA2 are EphA2pep_P1 and EphA2pep_P2, respectively. The long peptide formed by linking the two short peptides is EphA2pep_PIP2. NCIpep and NC2pep are two irrelevant peptides as the negative control. EphA2 ECD is a recombinant EphA2 extracellular domain protein.

binding to long peptide EphA2pep_PIP2 (peptide ELISA (FIG. 9A)): exhibited a binding response
binding to short peptides EphA2pep_P1 and EphA2pep_P2 (peptide ELISA (FIG. 9A)): individually recognized
cross-binding to two irrelevant peptides (peptide ELISA, NC peptides (FIG. 9A)): did not exhibit a cross-binding reaction
B1: IgG hSD5: complete humanized anti-EphA2 IgG (IgG1) of hSD5 (antibody, V domains shown)
VH: QVQLVESGGGLVQPGGSLRLSCAASGFTFSDYGMGWVRQAPGKGLEWVAGISAAGSFTPYGAAVKGRFTISRDNSKNTVYLQMNSLRAEDTAVYYCARIPSGYRAGEIYTWGQGTLVTVSS
VL: LTQPPSVSVSPGQTVRITCSGSSGSYGWYQQKSPGQAPVTLIYDNDKRPSGIPERFSGSSSGSTSTLTISGVQAEDEADYYCGSADSSTYVGMFGGGTKLTVL
interaction with EphA2pep_P1 compared with EphA2pep_P2 (peptide ELISA (FIG. 9A)): stronger
